Source: patent US20200207874A1 (Hoffmann-La Roche, published 2020)
“And” between values parts separate entries of the source, which are not always exact repeats. Equal entries are not always repeated.

Experiments:
[1] = target: T1, IGF-1R(1340-1366)[1346-pTyr]amid (phosphotyrosine at 1346; C-terminal amide); experiment: SPR (BIAcore 3000), complex on SA sensor, peptide in solution
T1 construct: also called pIGF-1R peptide (free in solution); phosphorylated IGF-1R peptide
T1 peptide: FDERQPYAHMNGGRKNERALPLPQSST
Method: (§1) A BIAcore 3000 instrument (GE Healthcare) was used with a BIAcore SA sensor mounted into the system at T=25° C. The system was preconditioned at 100 μl/min with 3×1 min injection of 1 M NaCl in 50 mM NaOH and 1 min 10 mM HCl.
(§2) 124 RU amino-PEO-biotin were captured on the reference flow cell 1. […] As a control, buffer was injected instead of the ss-Fabs.
(§3) The dissociation was monitored at 50 μl/min for 5.3 min. The system was regenerated after each concentration step with a 12 sec pulse of 250 mM NaOH and was reloaded with ss-FAB ligand.

[2] = target: T1, IGF-1R(1340-1366)[1346-pTyr]amid; experiment: SPR (BIAcore 3000, SA sensor, 25 C): ss-FABs hybridized on the biotinylated T40-Bi 77-mer ss-DNA linker on the surface; peptide as analyte in solution
Method: as §1, §2, §3

[3] = target: T2, IGF-1R(1340-1366)amid (C-terminal amide); experiment: as above
T2 construct: also called IGF-1R peptide (free in solution); non-phosphorylated IGF-1R peptide
T2 peptide: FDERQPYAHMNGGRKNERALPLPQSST
Method: as §1, §2, §3

[4] = target: T1, IGF-1R(1340-1366)[1346-pTyr]amid; experiment: SPR (BIAcore 3000, SA sensor, 25 C): single ss-FAB hybridized on the biotinylated T40-Bi 77-mer ss-DNA linker on the surface; peptide as analyte in solution
Method: as §1, §2, §3

[5] = target: T2, IGF-1R(1340-1366)amid; experiment: as above
Method: as §1, §2, §3

[6] = target: T3, INR(1355-1382)[1361-pTyr]amid (human, phosphotyrosine at 1361; C-terminal amide); experiment: as above
T3 construct: also called pINR peptide; phosphorylated insulin receptor peptide (free in solution)
T3 peptide: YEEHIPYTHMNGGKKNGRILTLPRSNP
Method: as §1, §2, §3

[7] = target: T1, IGF-1R(1340-1366)[1346-pTyr]amid; experiment: SPR (BIAcore 3000, SA sensor, 25 C): single ss-FAB hybridized on the biotinylated T0-Bi 37-mer ss-DNA linker on the surface; peptide as analyte in solution
Method: as §1, §2, §3

[8] = target: T2, IGF-1R(1340-1366)amid; experiment: as above
Method: as §1, §2, §3

[9] = target: T4, IGF-1R(1340-1366)[1346-pTyr; Glu(Bi-PEG-1340]amid (not fully specified; phosphotyrosine at 1346; PEG linker with biotin on the glutamic acid at position 1340; C-terminal amide); experiment: SPR (BIAcore 2000), biotinylated peptide on SA sensor, 100 nM analyte
T4 construct: also called pIGF-1R peptide (biotinylated); phosphorylated IGF-1R peptide
T4 peptide: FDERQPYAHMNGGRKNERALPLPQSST

[10] = target: T5, IGF-1R(1340-1366); Glu(Bi-PEG-1340]amid (not fully specified; PEG linker with biotin on the glutamic acid at position 1340; C-terminal amide); experiment: as above
T5 construct: also called IGF-1R peptide (biotinylated, non-phosphorylated)
T5 peptide: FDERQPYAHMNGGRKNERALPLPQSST

[11] = target: T6, hInsR(1355-1382)[1361-pTyr; Glu(Bi-PEG-1355]amid (human, not fully specified; phosphotyrosine at 1361; PEG linker with biotin on the glutamic acid at position 1355; C-terminal amide); experiment: SPR (BIAcore 2000), biotinylated peptide on SA sensor
T6 construct: also called pIR peptide; IR (phosphorylated insulin receptor) peptide (biotinylated)
T6 peptide: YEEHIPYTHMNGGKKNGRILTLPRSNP

[12] = target: T1, IGF-1R(1340-1366)[1346-pTyr]amid; experiment: SPR (BIAcore 3000, SA sensor, 25 C): ss-FABs hybridized on the biotinylated T0-Bi 37-mer ss-DNA linker on the surface; peptide as analyte in solution
Method: as §1, §2, §3

[13] = target: T2, IGF-1R(1340-1366)amid; experiment: as above
Method: as §1, §2, §3

[14] = target: T7, streptavidin (SA) (UniProt P22629 37-163, limits assumed); experiment: SPR (BIAcore 3000), streptavidin injected over 2C4-FAB'-ss-L-DNA bound to captured huFc chimera HER2 ECD
T7 construct: Injected at 250 nM as effector moiety to probe the biotin of the 75mer ss-L-DNA linker
Source text: The BIAcore assay setup comprised the following (see also FIG. 6): A polyclonal goat anti human IgG-Fc gamma antibody was immobilized on the BIAcore CM5 sensor and serves as a capture system for the huFc chimera HER2 ECD.
The FAB fragments have a calculated molecular weight of 57 kDa, each. […] Streptavidin is the effector moiety.

T7 sequence (P22629 37-163 limits assumed): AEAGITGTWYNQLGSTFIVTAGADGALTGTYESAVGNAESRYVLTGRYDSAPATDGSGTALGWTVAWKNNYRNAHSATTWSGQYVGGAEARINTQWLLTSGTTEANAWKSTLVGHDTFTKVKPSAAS

B1: T40 dual binding agent: ss-FAB 8.1.2 and ss-FAB 1.4.168 on the biotinylated T40-Bi 77-mer ss-DNA linker (linker 10) (bispecific antibody, V domains shown)
VH 1: EVQLQQSGPALVKPGASVKMSCKASGFTFTSYVIHWVKQKPGQGLEWIGYLNPYNDNTKYNEKFKGKATLTSDRSSSTVYMEFSSLTSEDSAVYFCARRGIYAYDHYFDYWGQGTSLTVSS
VL 1: QIVLTQSPAIMSASPGEKVTLTCSASSSVNYMYWYQQKPGSSPRLLIYDTSNLASGVPVRFSGSGSVTSYSLTISRMEAEDAATYYCQQWSTYPLTFGAGTKLELK
VH 2: QCDVKLVESGGGLVKPGGSLKLSCAASGFTFSDYPMSWVRQTPEKRLEWVATITTGGTYTYYPDSIKGRFTISRDNAKNTLYLQMGSLQSEDAAMYYCTRVKTDLWWGLAYWGQGTLVTVSA
VL 2: QLVLTQSSSASFSLGASAKLTCTLSSQHSTYTIEWYQQQPLKPPKYVMELKKDGSHTTGDGIPDRFSGSSSGADRYLSISNIQPEDESIYICGVGDTIKEQFVYVFGGGTKVTVLG
modifications: FAB′ hinge cysteine linked to ss-DNA
notes: Assembled on the SA sensor surface; also called T40-bi complex
[1]
  Kd: 0.01 nM
[2]
  Kd: 0.0125 nM
[3]
  Kd: 0.973 nM and 1 nM
  t1/2 diss: 4.3 min

B2: ss-FAB′ 1.4.168 (Fab, V domains shown)
VH: DVKLVESGGGLVKPGGSLKLSCAASGFTFSDYPMSWVRQTPEKRLEWVATITTGGTYTYYPDSIKGRFTISRDNAKNTLYLQMGSLQSEDAAMYYCTRVKTDLWWGLAYWGQGTLVTVSA
VL: QLVLTQSSSASFSLGASAKLTCTLSSQHSTYTIEWYQQQPLKPPKYVMELKKDGSHTTGDGIPDRFSGSSSGADRYLSISNIQPEDESIYICGVGDTIKEQFVYVFGGGTKVTVLG
modifications: cysteine of the FAB′ hinge region linked to 17mer ss-DNA comprising SEQ ID NO: 05 with fluorescein
notes: FAB′ from pepsin cleavage of murine mAb 1.4.168; also called ss-FAB 1.004.168; fluorescein-ss-FAB′ 1.4.168
[4]
  Kd: 2.14 nM and 2 nM
  koff: 0.00419 s⁻¹
  kon: 1.96e+06 M⁻¹ s⁻¹
[5]
  Kd: 1.1 nM and 1 nM
  koff: 0.00362 s⁻¹
  kon: 3.3e+06 M⁻¹ s⁻¹
  t1/2 diss: 3 min
[6]
  binding result: no binding (tested: 300 nM (highest peptide step))
[7]
  Kd: 2.59 nM and 3 nM
  koff: 0.00291 s⁻¹
  kon: 1.12e+06 M⁻¹ s⁻¹
  t1/2 diss: 4 min
[8]
  Kd: 1.35 nM and 1 nM
  koff: 0.00326 s⁻¹
  kon: 2.41e+06 M⁻¹ s⁻¹
  t1/2 diss: 4 min
[9]
  T1/2 dis: 3 min
[10]
  T1/2 dis: 3 min
[11]
  binding result: no binding (tested: 100 nM)

B3: T0 dual binding agent: ss-FAB 8.1.2 and ss-FAB 1.4.168 on the biotinylated T0-Bi 37-mer ss-DNA linker (linker 17) (bispecific antibody, V domains shown)
VH 1: EVQLQQSGPALVKPGASVKMSCKASGFTFTSYVIHWVKQKPGQGLEWIGYLNPYNDNTKYNEKFKGKATLTSDRSSSTVYMEFSSLTSEDSAVYFCARRGIYAYDHYFDYWGQGTSLTVSS
VL 1: QIVLTQSPAIMSASPGEKVTLTCSASSSVNYMYWYQQKPGSSPRLLIYDTSNLASGVPVRFSGSGSVTSYSLTISRMEAEDAATYYCQQWSTYPLTFGAGTKLELK
VH 2: QCDVKLVESGGGLVKPGGSLKLSCAASGFTFSDYPMSWVRQTPEKRLEWVATITTGGTYTYYPDSIKGRFTISRDNAKNTLYLQMGSLQSEDAAMYYCTRVKTDLWWGLAYWGQGTLVTVSA
VL 2: QLVLTQSSSASFSLGASAKLTCTLSSQHSTYTIEWYQQQPLKPPKYVMELKKDGSHTTGDGIPDRFSGSSSGADRYLSISNIQPEDESIYICGVGDTIKEQFVYVFGGGTKVTVLG
modifications: FAB′ hinge cysteine linked to ss-DNA
[1]
  Kd: 0.03 nM
[12]
  Kd: 0.0344 nM
[13]
  Kd: 1.2 nM and 1 nM
  t1/2 diss: 5 min

B4: anti-HER2 antibody 2C4-FAB′-ss-L-DNA (Fab, V domains shown)
VH: EVQLVESGGGLVQPGGSLRLSCAASGFTFTDYTMDWVRQAPGKGLEWVADVNPNSGGSIYNQRFKGRFTLSVDRSKNTLYLQMNSLRAEDTAVYYCARNLGPSFYFDYWGQGTLVTVSS
VL: DIQMTQSPSSLSASVGDRVTITCKASQDVSIGVAWYQQKPGKAPKLLIYSASYRYTGVPSRFSGSGSGTDFTLTISSLQPEDFATYYCQQYYIYPYTFGQGTKVEIKQ
modifications: cysteine of the FAB′ hinge region linked via maleimide to fluorescein-labeled ss-L-DNA oligonucleotide
notes: FAB′ of 2C4 (Pertuzumab); also called 2C4-ss-L-DNA; 2C4-75mer
[14]
  binding result: no binding (tested: 250 nM)
